Source: patent publication US5217864, “Replication initiator protein complex and methods of use thereof” (The Rockefeller University)

Molecular target: OTF1/NFIII (UniProt P14859 P14859:1-743)
Experiment: EMSA; data not shown

Sequence of OTF1/NFIII (P14859 whole entry, one chain of several): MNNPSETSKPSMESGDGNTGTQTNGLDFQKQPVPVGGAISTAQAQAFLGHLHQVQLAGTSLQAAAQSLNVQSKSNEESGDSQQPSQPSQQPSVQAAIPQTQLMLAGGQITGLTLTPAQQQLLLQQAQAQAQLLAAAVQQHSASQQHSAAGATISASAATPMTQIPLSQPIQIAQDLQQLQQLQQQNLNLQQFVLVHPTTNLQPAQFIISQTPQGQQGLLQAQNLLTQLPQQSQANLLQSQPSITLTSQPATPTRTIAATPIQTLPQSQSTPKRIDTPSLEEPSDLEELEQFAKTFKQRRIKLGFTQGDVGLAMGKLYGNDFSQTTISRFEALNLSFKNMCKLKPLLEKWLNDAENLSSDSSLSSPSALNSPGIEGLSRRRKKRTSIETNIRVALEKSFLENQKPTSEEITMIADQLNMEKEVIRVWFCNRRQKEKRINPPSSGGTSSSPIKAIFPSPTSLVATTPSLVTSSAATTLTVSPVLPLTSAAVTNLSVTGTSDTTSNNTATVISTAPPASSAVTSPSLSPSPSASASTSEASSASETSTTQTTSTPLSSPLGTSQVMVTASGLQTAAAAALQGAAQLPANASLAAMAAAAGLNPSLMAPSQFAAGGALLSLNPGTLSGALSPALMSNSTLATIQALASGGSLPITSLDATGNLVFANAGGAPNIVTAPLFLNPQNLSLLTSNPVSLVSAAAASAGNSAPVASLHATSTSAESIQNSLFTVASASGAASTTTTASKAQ

B1: OTF1 site at 5' end of 280 bp fragment (dsDNA)
DNA 1: ATTTTCAT
DNA 2: ATGAAAAT
Q: Does B1 bind?
A: binds
